Test results published in patent US20240269285A1 (University of Texas, published 2024).

T1: human CD70 (human, UniProt P32970 1-193)
T1 construct: whole, on cells; also called CD70 antigen; CD27 ligand
T1 sequence (looked up): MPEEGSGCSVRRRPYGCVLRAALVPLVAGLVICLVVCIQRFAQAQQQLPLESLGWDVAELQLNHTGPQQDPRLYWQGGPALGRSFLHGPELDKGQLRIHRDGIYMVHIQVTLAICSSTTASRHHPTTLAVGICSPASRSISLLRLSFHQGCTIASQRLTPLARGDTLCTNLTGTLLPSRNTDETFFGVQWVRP


Biological target: T1, human CD70
Experiment: flow cytometry on CBNK cells, Raji WT cells and Raji CD70 KO cells
Method: Flow cytometry assay was conducted to detect the binding of various ml, m5, m6, m7, m14, m15, m16, m19, and m22 clones CD70 antibody clones to CD70 antigen expressed in various cells.

Row | Binder | binding result
1 | m7 monoclonal anti-human CD70 antibody clone (antibody, V domains shown, Purified monoclonal antibody; Detected with a goat anti-mouse IgG-HRP secondary antibody; also called m7-CD70) VH: QVQLKQSGPGLVQPSQSLSITCTVSGFSLTSYGVHWVRQSPGKGLEWLGVIWSGGSTDYNAAFISRLSISKDNSKSQVFFKMNSLQANDTAIYYCATYYRYDGWFAYWGQGTLVTVSA VL: DIVLTQSPASLAVSLGQRATISCRASKSVSTSGYSYMHWYQQKPGQPPKLLIYLASNLESGVPARFSGSGSGTDFTLNIHPVEEEDAATYSCQHSRELPWTFGGGTKLEIK | binds
2 | m14 monoclonal anti-human CD70 antibody clone (antibody, V domains shown, Purified monoclonal antibody; Detected with a goat anti-mouse IgG-HRP secondary antibody; also called m14-CD70) VH: EVQLQQSGAELVKPGASVKLSCTASGFNIKDSYMHWVKQRPEQGLEWIGRIDPANANPKYDPKFQGKATITTDTSSNTAYLQLSSLTSEDTAVYYCARDYGGYFDVWGAGTTVTVSS VL: DIQMTQSSSYLSVSLGGRVTITCKASDHINNWLAWYQQKPGNAPRLLISGATSLETGVPSRFSGSGSGKDYTLSITSLQTEDVATYYCQQYWSTPWTFGGGTKLEIK | binds
